# Data: patent US20250092426, “CAS ENDONUCLEASES AND RELATED METHODS” (Flagship Pioneering Innovations VII, LLC, published 2025)
# T1: CasEnd-12 (synthetic construct)
# T1 chain: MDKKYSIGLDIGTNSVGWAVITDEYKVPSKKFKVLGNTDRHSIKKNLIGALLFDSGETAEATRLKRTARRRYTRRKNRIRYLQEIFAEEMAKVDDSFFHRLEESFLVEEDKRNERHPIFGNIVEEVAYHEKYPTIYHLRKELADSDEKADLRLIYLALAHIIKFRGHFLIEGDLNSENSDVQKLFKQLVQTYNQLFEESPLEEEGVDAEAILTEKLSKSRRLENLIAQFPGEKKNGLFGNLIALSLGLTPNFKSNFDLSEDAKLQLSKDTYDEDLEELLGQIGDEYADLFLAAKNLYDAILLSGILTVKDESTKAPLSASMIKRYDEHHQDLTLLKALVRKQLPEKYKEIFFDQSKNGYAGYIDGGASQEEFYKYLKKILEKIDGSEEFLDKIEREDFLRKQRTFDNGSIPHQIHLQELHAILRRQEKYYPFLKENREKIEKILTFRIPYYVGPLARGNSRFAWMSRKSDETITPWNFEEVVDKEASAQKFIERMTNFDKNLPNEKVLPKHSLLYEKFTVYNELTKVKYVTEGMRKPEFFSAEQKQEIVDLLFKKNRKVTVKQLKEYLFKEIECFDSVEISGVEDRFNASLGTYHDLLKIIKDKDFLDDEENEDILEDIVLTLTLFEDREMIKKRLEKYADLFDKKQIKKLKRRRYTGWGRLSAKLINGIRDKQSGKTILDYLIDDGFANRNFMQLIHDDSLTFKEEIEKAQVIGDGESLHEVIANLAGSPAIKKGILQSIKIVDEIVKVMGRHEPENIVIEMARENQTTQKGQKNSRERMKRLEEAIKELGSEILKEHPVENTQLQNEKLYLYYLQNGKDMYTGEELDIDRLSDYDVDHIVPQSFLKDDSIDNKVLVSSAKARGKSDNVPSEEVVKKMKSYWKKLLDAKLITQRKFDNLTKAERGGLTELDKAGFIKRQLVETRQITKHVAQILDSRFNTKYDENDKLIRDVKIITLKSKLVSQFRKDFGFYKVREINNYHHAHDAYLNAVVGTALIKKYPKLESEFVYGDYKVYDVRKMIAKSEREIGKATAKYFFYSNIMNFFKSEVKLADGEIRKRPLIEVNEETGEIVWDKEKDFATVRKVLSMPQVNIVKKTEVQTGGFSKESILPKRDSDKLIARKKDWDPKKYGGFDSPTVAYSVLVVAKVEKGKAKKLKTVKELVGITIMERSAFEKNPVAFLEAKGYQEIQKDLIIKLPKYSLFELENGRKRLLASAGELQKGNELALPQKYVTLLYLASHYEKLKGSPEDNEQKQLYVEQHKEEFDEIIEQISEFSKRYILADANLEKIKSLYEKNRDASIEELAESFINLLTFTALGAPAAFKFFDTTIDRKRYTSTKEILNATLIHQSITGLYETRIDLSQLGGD
# B1: BFP-to-GFP template RNA ; BFP reporter protospacer (ssRNA ; dsDNA)
# RNA: GCCGAAGCACUGCACGCCGUGUUUUAGAGCUAGAAAUAGCAAGUUAAAAUAAGGCUAGUCCGUUAUCAACUUGAAAAAGUGGCACCGAGUCGGUGCACCCUGACGUACGGCGUGCAGUGCUU
# DNA 1: GCCGAAGCACTGCACGCCGT
# DNA 2: ACGGCGTGCAGTGCTTCGGC
# Target: T1, CasEnd-12
# Assay: cell_activity; +++; HEK293T; PAM not stated
# How it was run: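 Editing activity was scored as the fraction of GFP+ cells on day 4 by flow cytometry. BFP-expressing HEK293T cells (250,000) received by nucleofection 200 ng plasmid for the RT-Cas fusion protein and 200 ng template RNA plasmid designed to convert BFP to GFP.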
binder,measurement,value
B1,activity,≥ 100 % of reference
